Data taken from CN114349851A (SHANGHAI NAI BIOTECHNOLOGY CO LTD, dated 2022).

Legend:
新冠病毒全长S蛋白 (Spike-trimer) = target: T1, 新冠病毒全长S蛋白 (Spike-trimer) (SARS-CoV-2, UniProt P0DTC2 14-1213); test: BLI (Octet RED96), His-tagged nanobody on Ni-NTA sensor
T1 construct: also called S-FL

B.1.617.1突变株RBD蛋白 = target: T2, B.1.617.1突变株RBD蛋白 (SARS-CoV-2 B.1.617.1, UniProt P0DTC2 319-541); test: ELISA
T2 construct: domain: RBD

Delta(B.1.617.2)突变株RBD蛋白 = target: T3, Delta(B.1.617.2)突变株RBD蛋白 (SARS-CoV-2 Delta (B.1.617.2), UniProt P0DTC2 319-541); test: BLI (Octet RED96), His-tagged nanobody on Ni-NTA sensor
T3 construct: domain: RBD; also called RBD-Delta; RBD-Delta(B.1.617.2)

Binder | Kd (新冠病毒全长S蛋白 (Spike-trimer)) | binding result (B.1.617.1突变株RBD蛋白) | Kd (Delta(B.1.617.2)突变株RBD蛋白)
纳米抗体C5 (C5克隆) (VHH, also called C5抗体; C5 nanobody) VHH: DVQLVESGGGSVQAGGSLRLSCAASGKYSHLGFLGWFRQAPGKEREGVAAGLGAYEDGYYADSVKGRFTVSLDNAENTVYLQMNSLKPEDTALYYCAALVVFSRDSPEFLAQNYWGQGTQVTVSS | 18 nM |  | 
纳米抗体C5D2 (VHH) VHH: DVQLVESGGGSVQAGGSLRLSCAASGEYSQLRFLGWFRQAPGKEREGVAAGLGANEDGYYADSVKGRFTVSLDNAENTVYLQMNSLKPEDTALYYCAALVIFSHDGPEFLAQNYWGQGTQVTVSS |  | no binding | 13.1 nM
纳米抗体C5G2 (VHH) VHH: DVQLVESGGGSVQAGGSLRLSCAASGKFSHLVFLGWFRQAPGKEREGVAAGLGAYESGYYADSVKGRFTVSLDNAENTVYLQMNSLKPEDTALYYCAALVVLSRDNTEFIAHNYWGQGTQVTVSS |  | no binding | 83.1 nM
